biological target: T1, recombinant human ErbB3 monomeric protein (cleaved rhErbB3) (human, UniProt P21860 20-643, limits assumed); assay: SPR Biacore 37 C; supernatant antibody captured on anti-human Fc, cleaved rhErbB3 injected
T1 construct: Monomer made by protease cleavage of the Fc fusion; also called Monomeric ErbB3
Method: The analyses were performed at 37° C. using PBS (Invitrogen, Catalog No. 14040-133) containing 0.05% surfactant P20 (Biacore, Catalog No. BR-1000-54) as running buffer.
The antibodies were captured in individual flow cells at a flow rate of […]. Injection time was varied for each antibody to yield an Rₘₐₓ between 30 and 60 RU. […] The dissociation phase was monitored for up to 1200 seconds. The surface was then regenerated with two 60 second injections of Glycine pH 2.25 (made from Glycine pH 2.0 (Biacore, Catalog No. BR-1003-55) and pH 2.5 (Biacore, Catalog No. BR-1003-56)) at […].
Kinetic parameters were determined using the kinetic function of the BIAevaluation software (Biacore) with double reference subtraction. Kinetic parameters for each antibody, kₐ (association rate constant), kd (dissociation rate constant) and KD (equilibrium dissociation constant) were determined.

Row | Binder | Kd [nM] | koff [s⁻¹] | kon [M⁻¹ s⁻¹]
1 | Sh24C05-45 (antibody, human IgG1, kappa, V domains shown, Humanized, human IgG1/kappa) VH: EVQLVESGGGLVKPGGSLRLSCAASGFTFSDYAMSWVRQAPGKGLEWVSTISDGGTYTYYPDNVKGRFTISRDNAKNSLYLQMNSLRAEDTAVYYCAREWGDYDGFDYWGQGTLVTVSS VL: DIQMTQSPSSLSASVGDRVTITCRASQEISGYLSWYQQKPGKAPKLLIYAASTLDSGVPSRFSGSGSGTDFTLTISSLQPEDFATYYCLQYDSYPYTFGQGTKLEIKR | 0.707 | 0.00606 | 8.57e+06
2 | Sh24C05-19 (antibody, human IgG1, kappa, V domains shown, Humanized, human IgG1/kappa) VH: QVQLVESGGGLVKPGGSLRLSCAASGFTFSDYAMSWIRQAPGKGLEWVSTISDGGTYTYYPDNVKGRFTISRDNAKNSLYLQMNSLRAEDTAVYYCAREWGDYDGFDYWGQGTLVTVSS VL: DIQMTQSPSSLSASVGDRVTITCRASQEISGYLSWLQQKPGGAIKRLIYAASTLDSGVPSRFSGSGSGSDYTLTISSLQPEDFATYYCLQYDSYPYTFGQGTKLEIKR | 0.0855 | 0.000255 | 3e+06
3 | Sh24C05-15 (antibody, human IgG1, kappa, V domains shown, Humanized, human IgG1/kappa) VH: EVQLVESGGGLVKPGGSLRLSCAASGFTFSDYAMSWVRQAPGKGLEWVSTISDGGTYTYYPDNVKGRFTISRDNAKNSLYLQMNSLRAEDTAVYYCAREWGDYDGFDYWGQGTLVTVSS VL: DIQMTQSPSSLSASVGDRVTITCRASQEISGYLSWLQQKPGGAIKRLIYAASTLDSGVPSRFSGSGSGSDYTLTISSLQPEDFATYYCLQYDSYPYTFGQGTKLEIKR | 0.187 | 0.000499 | 2.67e+06
4 | Sh24C05-20 (antibody, human IgG1, kappa, Humanized, human IgG1/kappa) heavy: not shown light: DIQMTQSPSSLSASVGDRVTITCRASQEISGYLSWFQQKPGKAPKSLIYAASTLDSGVPSRFSGSGSGTDFTLTISSLQPEDFATYYCLQYDSYPYTFGQGTKLEIKRTVAAPSVFIFPPSDEQLKSGTASVVCLLNNFYPREAKVQWKVDNALQSGNSQESVTEQDSKDSTYSLSSTLTLSKADYEKHKVYACEVTHQGLSSPVTKSFNRGEC | 0.221 | 0.000591 | 2.67e+06
5 | Sh24C05-23 (antibody, human IgG1, kappa, V domains shown, Humanized, human IgG1/kappa) VH: QVQLVESGGGVVQPGRSLRLSCAASGFTFSDYAMSWVRQAPGKGLEWVATISDGGTYTYYPDNVKGRFTISRDNSKNTLYLQMSSLRAEDTAVYYCAREWGDYDGFDYWGQGTLVTVSS VL: DIQMTQSPSSLSASVGDRVTITCRASQEISGYLSWFQQKPGKAPKSLIYAASTLDSGVPSRFSGSGSGTDFTLTISSLQPEDFATYYCLQYDSYPYTFGQGTKLEIKR | 0.263 | 0.000721 | 2.79e+06
6 | Sh24C05-26 (antibody, human IgG1, kappa, Humanized, human IgG1/kappa) heavy: not shown light: DIQMTQSPSSLSASVGDRVTITCRASQEISGYLSWYQQKPGKAPKRLIYAASTLDSGVPSRFSGSGSGTEFTLTISSLQPEDFATYYCLQYDSYPYTFGQGTKLEIKRTVAAPSVFIFPPSDEQLKSGTASVVCLLNNFYPREAKVQWKVDNALQSGNSQESVTEQDSKDSTYSLSSTLTLSKADYEKHKVYACEVTHQGLSSPVTKSFNRGEC | 0.22 | 0.000739 | 3.36e+06
7 | Sh24C05-16 (antibody, human IgG1, kappa, V domains shown, Humanized, human IgG1/kappa) VH: EVQLLESGGGLVQPGGSLRLSCAASGFTFSDYAMSWVRQAPGKGLEWVSTISDGGTYTYYPDNVKGRFTISRDNSKNTLYLQMNSLRAEDTAVYYCAREWGDYDGFDYWGQGTLVTVSS VL: DIQMTQSPSSLSASVGDRVTITCRASQEISGYLSWLQQKPGGAIKRLIYAASTLDSGVPSRFSGSGSGSDYTLTISSLQPEDFATYYCLQYDSYPYTFGQGTKLEIKR | 0.147 | 0.000404 | 2.75e+06
8 | Sh24C05-22 (antibody, human IgG1, kappa, V domains shown, Humanized, human IgG1/kappa) VH: EVQLLESGGGLVQPGGSLRLSCAASGFTFSDYAMSWVRQAPGKGLEWVSTISDGGTYTYYPDNVKGRFTISRDNSKNTLYLQMNSLRAEDTAVYYCAREWGDYDGFDYWGQGTLVTVSS VL: DIQMTQSPSSLSASVGDRVTITCRASQEISGYLSWFQQKPGKAPKSLIYAASTLDSGVPSRFSGSGSGTDFTLTISSLQPEDFATYYCLQYDSYPYTFGQGTKLEIKR | 0.216 | 0.000601 | 2.79e+06
9 | Sh24C05-18 (antibody, human IgG1, kappa, Humanized, human IgG1/kappa) heavy: not shown light: DIQMTQSPSSLSASVGDRVTITCRASQEISGYLSWLQQKPGGAIKRLIYAASTLDSGVPSRFSGSGSGSDYTLTISSLQPEDFATYYCLQYDSYPYTFGQGTKLEIKRTVAAPSVFIFPPSDEQLKSGTASVVCLLNNFYPREAKVQWKVDNALQSGNSQESVTEQDSKDSTYSLSSTLTLSKADYEKHKVYACEVTHQGLSSPVTKSFNRGEC | 0.161 | 0.000463 | 2.88e+06

The remaining binders from weak to strong by Kd, led by results:

Row | Kd [nM] | koff [s⁻¹] | kon [M⁻¹ s⁻¹] | Binder
10 | 0.24 | 0.000798 | 3.34e+06 | Sh24C05-27 (antibody, human IgG1, kappa, V domains shown, Humanized, human IgG1/kappa) VH: EVQLVESGGGLVKPGGSLRLSCAASGFTFSDYAMSWVRQAPGKGLEWVSTISDGGTYTYYPDNVKGRFTISRDNAKNSLYLQMNSLRAEDTAVYYCAREWGDYDGFDYWGQGTLVTVSS VL: DIQMTQSPSSLSASVGDRVTITCRASQEISGYLSWYQQKPGKAPKRLIYAASTLDSGVPSRFSGSGSGTEFTLTISSLQPEDFATYYCLQYDSYPYTFGQGTKLEIKR
11 | 0.22 | 0.000662 | 3.11e+06 | Sh24C05-21 (antibody, human IgG1, kappa, V domains shown, Humanized, human IgG1/kappa) VH: EVQLVESGGGLVKPGGSLRLSCAASGFTFSDYAMSWVRQAPGKGLEWVSTISDGGTYTYYPDNVKGRFTISRDNAKNSLYLQMNSLRAEDTAVYYCAREWGDYDGFDYWGQGTLVTVSS VL: DIQMTQSPSSLSASVGDRVTITCRASQEISGYLSWFQQKPGKAPKSLIYAASTLDSGVPSRFSGSGSGTDFTLTISSLQPEDFATYYCLQYDSYPYTFGQGTKLEIKR
12 | 0.218 | 0.000628 | 2.9e+06 | Sh24C05-24 (antibody, human IgG1, kappa, Humanized, human IgG1/kappa) heavy: not shown light: DIQMTQSPSSLSASVGDRVTITCRASQEISGYLSWFQQKPGKAPKSLIYAASTLDSGVPSRFSGSGSGTDFTLTISSLQPEDFATYYCLQYDSYPYTFGQGTKLEIKRTVAAPSVFIFPPSDEQLKSGTASVVCLLNNFYPREAKVQWKVDNALQSGNSQESVTEQDSKDSTYSLSSTLTLSKADYEKHKVYACEVTHQGLSSPVTKSFNRGEC
13 | 0.189 | 0.000614 | 3.26e+06 | Sh24C05-28 (antibody, human IgG1, kappa, V domains shown, Humanized, human IgG1/kappa) VH: EVQLLESGGGLVQPGGSLRLSCAASGFTFSDYAMSWVRQAPGKGLEWVSTISDGGTYTYYPDNVKGRFTISRDNSKNTLYLQMNSLRAEDTAVYYCAREWGDYDGFDYWGQGTLVTVSS VL: DIQMTQSPSSLSASVGDRVTITCRASQEISGYLSWYQQKPGKAPKRLIYAASTLDSGVPSRFSGSGSGTEFTLTISSLQPEDFATYYCLQYDSYPYTFGQGTKLEIKR
14 | 0.173 | 0.000498 | 2.88e+06 | Sh24C05-14 (antibody, human IgG1, kappa, Humanized, human IgG1/kappa) heavy: not shown light: DIQMTQSPSSLSASVGDRVTITCRASQEISGYLSWLQQKPGGAIKRLIYAASTLDSGVPSRFSGSGSGSDYTLTISSLQPEDFATYYCLQYDSYPYTFGQGTKLEIKRTVAAPSVFIFPPSDEQLKSGTASVVCLLNNFYPREAKVQWKVDNALQSGNSQESVTEQDSKDSTYSLSSTLTLSKADYEKHKVYACEVTHQGLSSPVTKSFNRGEC
